Reference: patent US20160304613A1 (Genentech, published 2016)
Residue numbers refer to the chain shown, from its start.

B1: YW64.3 (antibody, human IgG1, V domains shown)
VH: EVQLVESGGGLVQPGGSLRLSCAASGFSFSSEPISWVRQAPGKGLEWVSSITGKNGYTYYADSVKGRFTISADTSKNTAYLQMNSLRAEDTAVYYCARWGKKVYGMDVWGQGTLVTVSS
VL: DIQMTQSPSSLSASVGDRVTITCRASQSISSYLAWYQQKPGKAPKLLIYGASSRASGVPSRFSGSGSGTDFTLTISSLQPEDFATYYCQQYMSVPITFGQGTKVEIKR
notes: full length human IgG1 (CHO) in ELISA, SPR and FACS; also called anti-NRP1^A; anti-NRP^A
B2: YW107.4.87 (antibody, V domains shown)
VH: EVQLVESGGGLVQPGGSLRLSCAASGFTFSSYAMSWVRQAPGKGLEWVSQISPAGGYTNYADSVKGRFTISADTSKNTAYLQMNSLRAEDTAVYYCARELPYYRMSKVMDVWGQGTLVTVSS
VL: B1 VL with S28Y, I29F, M92L, S93G, V94S, I96P
notes: Monovalent Fab on phage in the phage ELISA; also called anti-NRP1^B; anti-NRP^B

Columns and labels:
[1] = biological target: T1, human NRP1 (human, UniProt O14786 22-641); assay: SPR (BIAcore-3000), IgG immobilized, NRP1 injected, 25 C
T1 construct: range 1-641; Recombinant soluble protein; also called hNRP1; human neuropilin-1
Protocol: (§1) Association rates (kₒₙ) and dissociation rates (koff) were calculated using a simple one-to-one Langmuir binding model (BIAcore Evaluation Software version 3.2). The equilibrium dissociation constant (Kd) was calculated as the ratio koff/kₒₙ.
(§2) (See Materials and Methods).

[2] = biological target: T2, murine NRP1 (murine, UniProt P97333 22-641); assay: as above
T2 construct: range 1-641; Recombinant soluble protein; also called mNRP1; murine neuropilin-1
Protocol: as §1, §2

[3] = biological target: T1, human NRP1; assay: competitive phage ELISA
[4] = biological target: T2, murine NRP1; assay: competitive phage ELISA
[5] = biological target: T1, human NRP1; assay: competitive phage ELISA, phage-displayed Fab'2, antigen in solution vs immobilized antigen
[6] = biological target: T2, murine NRP1; assay: as above
[7] = biological target: T3, human NRP2 (human, UniProt O60462 23-864, limits assumed); assay: ELISA, antigen-coated wells (2 µg/ml), IgG at 10 µg/ml, detected with anti-human IgG HRP, OD450nm
T3 construct: Coated on wells in ELISA and injected in SPR; construct not described; also called hNRP2

[8] = biological target: T4, murine NRP2 (murine, UniProt O35375 23-864, limits assumed); assay: as above
T4 construct: Coated on wells in ELISA and injected in SPR; construct not described; In the Sema3F collapse assay it is the endogenous NRP2 of mouse E17 hippocampal neurons; also called mNRP2

[9] = biological target: T5, ErbB2-ECD (UniProt P04626 23-652, limits assumed); assay: as above
T5 construct: extracellular domain; Specificity control antigen

[10] = biological target: T6, BSA (UniProt P02769 25-607); assay: as above
T6 construct: Specificity control antigen

[11] = biological target: T3, human NRP2; assay: BIAcore SPR, IgG immobilized on the chip, antigen injected at 500 nM (printed '500nm')
Protocol: as §1

[12] = biological target: T4, murine NRP2; assay: as above
Protocol: as §1

T2 sequence (P97333 22-641 limits assumed, form in doubt): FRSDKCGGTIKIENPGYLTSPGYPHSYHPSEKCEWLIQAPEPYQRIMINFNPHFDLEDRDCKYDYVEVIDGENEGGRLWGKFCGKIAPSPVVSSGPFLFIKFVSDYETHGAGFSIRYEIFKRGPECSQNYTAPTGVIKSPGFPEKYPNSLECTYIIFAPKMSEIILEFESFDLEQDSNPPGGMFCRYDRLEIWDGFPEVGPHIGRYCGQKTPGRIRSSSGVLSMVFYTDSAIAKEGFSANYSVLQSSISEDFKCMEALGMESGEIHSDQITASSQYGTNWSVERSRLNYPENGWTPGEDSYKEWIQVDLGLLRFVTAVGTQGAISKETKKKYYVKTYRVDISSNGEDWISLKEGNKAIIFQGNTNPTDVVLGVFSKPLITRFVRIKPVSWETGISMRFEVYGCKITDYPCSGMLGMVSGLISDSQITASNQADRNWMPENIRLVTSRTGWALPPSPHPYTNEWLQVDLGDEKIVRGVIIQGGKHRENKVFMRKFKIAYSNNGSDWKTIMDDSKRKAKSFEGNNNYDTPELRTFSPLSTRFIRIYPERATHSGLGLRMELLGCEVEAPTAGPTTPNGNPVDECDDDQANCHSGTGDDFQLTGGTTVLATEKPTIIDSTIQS
T3 sequence (O60462 23-864 limits assumed): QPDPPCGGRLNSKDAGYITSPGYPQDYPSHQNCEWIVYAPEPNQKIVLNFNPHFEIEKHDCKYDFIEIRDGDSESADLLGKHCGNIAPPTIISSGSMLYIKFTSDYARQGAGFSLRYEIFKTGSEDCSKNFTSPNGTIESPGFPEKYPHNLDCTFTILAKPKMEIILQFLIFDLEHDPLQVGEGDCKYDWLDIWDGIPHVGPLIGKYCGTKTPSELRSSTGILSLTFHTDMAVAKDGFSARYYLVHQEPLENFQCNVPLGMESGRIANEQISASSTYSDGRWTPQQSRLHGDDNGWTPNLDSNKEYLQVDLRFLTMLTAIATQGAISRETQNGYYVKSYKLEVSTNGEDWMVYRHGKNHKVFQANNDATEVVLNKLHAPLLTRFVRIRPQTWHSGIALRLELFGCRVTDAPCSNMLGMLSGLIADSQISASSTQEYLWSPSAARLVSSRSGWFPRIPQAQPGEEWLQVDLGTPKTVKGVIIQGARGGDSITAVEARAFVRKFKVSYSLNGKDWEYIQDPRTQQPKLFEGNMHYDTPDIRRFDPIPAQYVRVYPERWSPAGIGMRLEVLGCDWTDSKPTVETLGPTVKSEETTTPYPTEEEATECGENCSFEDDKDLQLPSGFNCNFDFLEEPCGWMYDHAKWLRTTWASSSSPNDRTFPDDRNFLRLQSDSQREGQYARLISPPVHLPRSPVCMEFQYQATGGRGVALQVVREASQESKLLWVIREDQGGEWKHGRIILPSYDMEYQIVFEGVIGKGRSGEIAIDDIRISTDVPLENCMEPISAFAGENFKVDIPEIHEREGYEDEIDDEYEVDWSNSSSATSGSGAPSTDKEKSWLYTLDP
T4 sequence (O35375 23-864 limits assumed): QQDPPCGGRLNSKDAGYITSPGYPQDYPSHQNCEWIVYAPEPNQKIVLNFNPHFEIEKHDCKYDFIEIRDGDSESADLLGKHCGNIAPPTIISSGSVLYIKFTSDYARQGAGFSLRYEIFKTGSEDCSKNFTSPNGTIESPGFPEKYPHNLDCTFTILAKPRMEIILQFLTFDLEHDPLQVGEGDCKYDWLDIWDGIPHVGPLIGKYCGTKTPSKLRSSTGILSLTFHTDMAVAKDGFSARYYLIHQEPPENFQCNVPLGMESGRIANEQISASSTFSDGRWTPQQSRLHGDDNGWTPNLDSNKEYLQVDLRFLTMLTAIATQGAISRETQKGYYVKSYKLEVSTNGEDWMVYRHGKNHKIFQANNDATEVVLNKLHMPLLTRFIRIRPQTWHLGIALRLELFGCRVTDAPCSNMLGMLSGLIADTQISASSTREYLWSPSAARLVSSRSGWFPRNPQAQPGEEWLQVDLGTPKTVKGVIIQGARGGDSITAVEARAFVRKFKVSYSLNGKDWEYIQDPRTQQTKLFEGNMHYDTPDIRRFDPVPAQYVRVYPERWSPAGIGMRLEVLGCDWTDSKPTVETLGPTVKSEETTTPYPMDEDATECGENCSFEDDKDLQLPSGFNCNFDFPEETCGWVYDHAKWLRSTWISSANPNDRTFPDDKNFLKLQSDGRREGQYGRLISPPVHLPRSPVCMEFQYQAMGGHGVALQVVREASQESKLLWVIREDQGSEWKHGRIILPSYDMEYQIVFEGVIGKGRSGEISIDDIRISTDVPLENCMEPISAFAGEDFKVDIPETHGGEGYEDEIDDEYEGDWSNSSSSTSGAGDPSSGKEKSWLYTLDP
T6 sequence (P02769 25-607 limits assumed): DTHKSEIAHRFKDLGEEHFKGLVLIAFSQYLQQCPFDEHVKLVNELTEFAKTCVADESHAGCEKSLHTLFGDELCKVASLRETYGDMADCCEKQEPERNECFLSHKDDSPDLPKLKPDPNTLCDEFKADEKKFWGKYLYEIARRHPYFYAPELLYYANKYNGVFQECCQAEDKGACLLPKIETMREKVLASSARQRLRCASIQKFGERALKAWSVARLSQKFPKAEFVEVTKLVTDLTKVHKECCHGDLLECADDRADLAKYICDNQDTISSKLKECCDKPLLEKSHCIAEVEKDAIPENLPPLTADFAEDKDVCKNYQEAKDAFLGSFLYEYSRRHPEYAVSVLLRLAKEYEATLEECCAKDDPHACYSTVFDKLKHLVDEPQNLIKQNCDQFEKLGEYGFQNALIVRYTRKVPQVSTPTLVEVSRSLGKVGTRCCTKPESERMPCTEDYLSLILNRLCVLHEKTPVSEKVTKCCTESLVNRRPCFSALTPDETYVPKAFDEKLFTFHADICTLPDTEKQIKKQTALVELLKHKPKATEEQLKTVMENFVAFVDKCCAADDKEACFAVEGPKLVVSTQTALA

Molecule | koff [1] [s⁻¹] | kon [1] [M⁻¹ s⁻¹] | koff [2] [s⁻¹] | kon [2] [M⁻¹ s⁻¹] | IC50 [3] [nM] | IC50 [4] [nM] | Kd [1] [nM] | Kd [2] [nM] | IC50 [5] [nM] | IC50 [6] [nM] | binding result [7] | binding result [8] | binding result [9] | binding result [10] | binding result [11] | binding result [12]
YW107.4 (antibody) | 0.0011 | 220000 | 0.0015 | 140000 |  |  |  |  |  |  |  |  |  |  |  | 
B1 | 0.00012 | 130000 | 0.00045 | 60000 | < 70 | < 70 | 0.9 | 7.8 | 0.48 | 3.4 | no binding (tested: 10 µg/ml) | no binding (tested: 10 µg/ml) | no binding (tested: 10 µg/ml) | no binding (tested: 10 µg/ml) |  | 
B2 |  |  |  |  |  |  |  |  |  |  |  |  |  |  | no binding (tested: 500 nM) | no binding (tested: 500 nM)
